From PMC3759425, “Insights into the Cross-Immunity Mechanism within Effector Families of Bacteria Type VI Secretion System from the Structure of StTae4-EcTai4 Complex” (PLoS ONE, 2013)

B1: EcTai4 (type VI amidase immunity 4 from Enterobacter cloacae), residues 19-117 (domain or fragment)
chain: QTLPDISTFSQQQIFENWVQNRCIGKIADSKSLKEDADASAAAWLEASNLPAENFEKADEVIVSLLKQKVGGTEPGHYQILKCTLIANSDAIRPLKSSK
notes: Tai4, type VI amidase immunity 4, E. cloacae, residues 19-117 without the N-terminal 18-residue signal peptide, amplified from genomic DNA; pET21a; Se-Met-labelled protein was used for the crystal structure; The construct of the His-EcTai4 of the pull-down is not described on its own; also called His-EcTai4; His-tag EcTai4; source: E. coli BL21 (DE3), co-expressed with StTae4, purified (crystal, …)
B2: StTae4 (type VI amidase effector 4 from Salmonella typhimurium) (enzyme)
chain: MNRPSFNEAWLAFRKVNHSVADVGSIIGGNVGKNITGGYFQNACPIRMSYVLNATGFPIARNSPYAKVSGADNKFYIYRVNDMIDYLTHTMGKPDLIVNNPKQSDFIGKKGIIVVKGHGWSNARGHVTLWNGSICSDQCHLLNDPDNGPFVPEVGTLWILP
notes: Tae4, type VI amidase effector 4, S. Typhimurium, full length, amplified from genomic DNA; cloned into NcoI/XhoI of pET28at-plus (introduces an N-terminal TEV cleavage site); Se-Met-labelled protein was used for the crystal structure; The vector adds an N-terminal TEV cleavage site; the pull-down methods call the effectors 'native effector proteins'; source: E. coli BL21 (DE3), co-expressed with …

What was measured:
[1] = molecular target: the molecule itself; assay: SAXS; purified complex in solution at 1, 3 and 5 mg/ml; theoretical curve of one tetramer of the crystal fitted to the experimental data, discrepancy 1.625
[2] = molecular target: B1; assay: as above; settings: both partners purified

| Binder | stoichiometry N [1] | stoichiometry N [2] |
| --- | --- | --- |
| B1 | 2 | – |
| B2 | – | 2 Tae4 molecules per Tai4 homodimer |
